Experimental data as given in patent publication US20250179176A1, “ANTI-TIGIT ANTIBODIES AND USES OF THE SAME” (ARCUS BIOSCIENCES, INC., priority 2022, published 2025).
Entries after “also recorded” stand apart in the source; their conditions may differ.

How the values were obtained:
human FcγR1 = human FcγR1 (Homo sapiens, UniProt P12314); test: ELISA binding of domvanalimab to FcγR; settings: up to 1 μM, vs human IgG1 control
Method: Antibody-dependent cell mediated cytotoxicity (ADCC) is mediated by the antibody Fc domain binding to a FcγR. […] Human IgG1 was used as a positive control and buffer containing no antibody was used as a negative control.
Briefly, ELISA plate coating solution was prepared by diluting human Fc-gamma receptors in PBS to a final concentration of 1 μg/mL (FcγR1) or 4 μg/mL (Fcγ R2A, 2B, 3A and 3B). 30 μL of coating solution was added to each well of the test plates, and the ELISA plates were then incubated overnight at 4° C. to facilitate receptor binding. The following day, ELISA plates were washed four times with 80 μL wash buffer (1×PBS+0.05% Tween-20) per well, prior to blocking with 80 μL blocking buffer (1×PBS+2% BSA) per well at room temperature for 2 hours.
Plates were then incubated for an hour prior to removal of well contents by aspiration followed by four washes with wash buffer. 30 μL of anti-human IgG HRP conjugate at 1:2500 dilution in antibody buffer was added to each of the washed wells. Plates were further incubated at room temperature for an additional 30 minutes. […] Luminescent signals were captured using an Envision Multimode Reader (Perkin Elmer) system approximately 10 minutes after substrate addition.

[1] = tested on: Jurkat cell line stably overexpressing human TIGIT; test: CDC assay with human complement; type: cell-based; settings: increasing concentrations up to 33 nM
Method: Briefly, 50,000 Jurkat-TIGIT cells in RPMI 1640 medium (Invitrogen) containing 10% fetal bovine serum (FBS) were seeded into a 96-well round bottom plates (Nunc). Test antibodies were added starting at a top concentration of 50 μg/ml followed by a three-fold dilution series and allowed to incubate with cells for 1 hour at 37° C. in a 5% CO2 incubator. After this 1-hour incubation, human complement was added and allowed to incubate for an additional 3 hours at 37° C. in a 5% CO2 incubator. Following the completion of this 3-hour incubation, […] of propidium iodide (ThermoFisher) was added and samples were analyzed by flow cytometry (BD FACSCalibur) to determine the percentages of propidium iodide positivity as a readout for cell death.

[2] = Pharmacokinetics of domvanalimab in humans; type: in vivo, human; settings: Q2W
Source text: The present example illustrates the pharmacokinetics of domvanalimab in human subjects. […] Subjects had ≥1 measurable lesion per RECIST v1.1 and ECOG performance status score 0-1.
Examination of the mean PK plots indicated similar PK across the dosing regimens.

[3] = Population PK model and simulations; set-up: species or system human
Method: All available PK data from this study were combined in a population PK model. […] The population PK model confirmed that the PK of domvanalimab was dose-linear over the dose range and consistent across the dosing regimens.
Simulations were run with the model of n=500 patients each at 10 mg/kg Q2W, 15 mg/kg Q3W, and 20 mg/kg Q4W dosing regimens for 24 weeks.

TIGIT = molecular target: T1, TIGIT (Homo sapiens, UniProt Q495A1); test: TIGIT receptor occupancy (RO) assay in whole blood by flow cytometry; type: in vivo
T1 construct: select peripheral lymphocyte populations in whole blood collected from patients enrolled in a clinical study; endogenous in cells; host or cells: peripheral lymphocytes in whole blood of dosed patients
T1 sequence (Q495A1 22-244): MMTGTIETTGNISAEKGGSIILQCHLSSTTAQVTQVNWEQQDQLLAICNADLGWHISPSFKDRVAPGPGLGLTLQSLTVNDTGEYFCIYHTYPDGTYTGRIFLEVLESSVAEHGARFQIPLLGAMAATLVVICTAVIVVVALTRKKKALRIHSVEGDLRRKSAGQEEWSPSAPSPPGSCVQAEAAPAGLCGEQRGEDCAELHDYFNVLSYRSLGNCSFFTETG
Method: The RO assay is depicted in FIG. 3A and FIG. 3B.
The RO of domvanalimab on select peripheral lymphocyte populations in whole blood collected from patients enrolled in a clinical study was assessed by flow cytometry using pre- and post-dose whole blood samples. […] RO was determined on various immune cell types using antibodies specific for surface markers CD3, CD4, CD8, CD56, FoxP3, and Ki67. RO was calculated as follows: […]

[4] = first cycle, over 20-fold dose range 0.5-10 mg/kg
[5] = monotherapy cohort (N=10), initial cutoff
[6] = monotherapy cohort (N=10), Grade 1

Sequence of human FcγR1 (P12314 16-374): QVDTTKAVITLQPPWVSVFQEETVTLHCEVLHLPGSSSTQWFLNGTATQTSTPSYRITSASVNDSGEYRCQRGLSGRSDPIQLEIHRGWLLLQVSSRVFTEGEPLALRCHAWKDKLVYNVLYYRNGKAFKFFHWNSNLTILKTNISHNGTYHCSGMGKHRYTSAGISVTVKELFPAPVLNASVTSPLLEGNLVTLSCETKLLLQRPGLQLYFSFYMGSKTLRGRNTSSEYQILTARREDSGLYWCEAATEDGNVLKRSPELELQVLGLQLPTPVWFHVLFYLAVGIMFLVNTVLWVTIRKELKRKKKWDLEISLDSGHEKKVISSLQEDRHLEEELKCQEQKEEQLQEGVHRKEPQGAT

B1: domvanalimab: anti-TIGIT antibody with engineered IgG1 Fc, reduced FcγR binding; heavy chain SEQ ID NO: 12, light chain SEQ ID NO: 13 (antibody)
heavy: EVQLVESGGGLVQPGGSLRLSCAASGFTFSNFGMHWVRQAPGKGLEWVAFISSGSSSIYYADTVKGRFTISRDNAKNSLYLQMNSLRAEDTAVYYCARMRLDYYAMDYWGQGTMVTVSSASTKGPSVFPLAPSSKSTSGGTAALGCLVKDYFPEPVTVSWNSGALTSGVHTFPAVLQSSGLYSLSSVVTVPSSSLGTQTYICNVNHKPSNTKVDKKVEPKSCDKTHTCPPCPAPEAAGGPSVFLFPPKPKDTLMISRTPEVTCWVDVSHEDPEVKFNWYVDGVEVHNAKTKPREEQYNSTYRWSVLTVLHQDWLNGKEYKCKVSNKALPAPIEKTISKAKGQPREPQVYTLPPSRDELTKNQVSLTCLVKGFYPSDIAVEWESNGQPENNYKTTPPVLDSDGSFFLYSKLTVDKSRWQQGNVFSCSVMHEALHNHYTQKSLSLSPGK
light: DIQMTQSPSSLSASVGDRVTITCRASKSISKYLAWYQQKPGKAPKLLIYSGSTLQSGVPSRFSGSGSGTDFTLTISSLQPEDFATYYCQQHNEYPWTFGGGTKVEIKRTVAAPSVFIFPPSDEQLKSGTASWCLLNNFYPREAKVQWKVDNALQSGNSQESVTEQDSKDSTYSLSSTLTLSKADYEKHKVYACEVTHQGLSSPVTKSFNRGEC
- binding to human FcγR1 (human FcγR1): no significant binding; also recorded: does not bind
- complement-dependent cytotoxicity [1]: No cytotoxicity
- dose proportionality of PK ([2]; 0.5-10 mg/kg): roughly dose proportional
- increase of concentration at end of infusion (Ceoinf) [2, 4]: 15 fold
- increase of concentration at the end of the dosing interval (Ctrough) [2, 4]: 27 fold
- increase of mean area under the concentration time curve over the first dosage interval [2, 4]: 17 fold
- terminal half-life ([3]; estimated based on the population PK model): 19.9 days
- volume of distribution ([3]; population PK model): approximated plasma volume
- dose linearity of PK ([3]; population PK model, 0.5-20 mg/kg, Q2W, Q3W, Q4W): dose-linear
- RO across all dose groups (TIGIT; 24 participants, 0.5-20 mg/kg Q2W/Q3W/Q4W, all post-dose time points): maximal RO
- TIGIT receptor occupancy (RO) (TIGIT; Q2W, monotherapy and combination cohorts, all cell types, 1 hour after end of infusion of first dose): ≥ 98%
- RO at later time points (TIGIT; Q2W, pre-dose Day 15, 29, 57, 85): complete RO was maintained
- SAE decreased appetite (monotherapy cohort (N=10)): 10%
- SAE dyspnea (monotherapy cohort (N=10)): 10%
- SAE hyponatremia (monotherapy cohort (N=10)): 10%
- SAE peritonitis bacterial (monotherapy cohort (N=10)): 10%
- SAE pleural effusion (monotherapy cohort (N=10)): 10%
- discontinued domvanalimab due to a TEAE (monotherapy cohort (N=10)): 30%
- dose delays/interruptions due to a TEAE (monotherapy cohort (N=10)): 10%
- SAEs considered related to domvanalimab [5]: none
- TEAE dyspnea regardless of causality [5]: 30%
- all other TEAEs, each [5]: ≤ 10%
- participants with SAEs [5]: 40%
- participants with at least 1 TEAE [5]: 100%
- participants with domvanalimab-related TEAEs [5]: 30%
- total number of SAEs [5]: 5
- domvanalimab-related TEAE fatigue [6]: 10%
- domvanalimab-related TEAE hyperglycemia [6]: 10%
- domvanalimab-related TEAE nausea [6]: 10%
- domvanalimab-related TEAE pruritus [6]: 10%
- deaths due to treatment-related AEs (whole study, initial cutoff): No deaths
